Results from article PMC6838674, “Apelin-36-[L28A] and Apelin-36-[L28C(30kDa-PEG)] peptides that improve diet induced obesity are G protein biased ligands at the apelin receptor” (Peptides, 2019).

Target: T1, apelin receptor (Rattus norvegicus), Q9JHG3
T1 chain: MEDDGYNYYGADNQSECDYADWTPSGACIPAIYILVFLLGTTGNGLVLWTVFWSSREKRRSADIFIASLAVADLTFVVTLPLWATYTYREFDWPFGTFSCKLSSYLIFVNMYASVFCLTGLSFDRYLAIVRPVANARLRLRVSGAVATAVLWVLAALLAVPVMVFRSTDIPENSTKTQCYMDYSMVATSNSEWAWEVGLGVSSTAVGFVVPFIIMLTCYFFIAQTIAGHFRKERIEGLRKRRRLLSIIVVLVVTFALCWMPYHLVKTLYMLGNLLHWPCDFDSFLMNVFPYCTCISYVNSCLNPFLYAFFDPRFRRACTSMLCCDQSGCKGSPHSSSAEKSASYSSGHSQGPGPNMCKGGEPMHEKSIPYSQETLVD
Experiment: radioligand competition binding, heart homogenate
Conditions: modification not given

Ki: 8.71 nM
Binder: LVQPRGSRNGPGPWQGGRRKFRRQRPRCSHKGPMPF [apelin-36-[L28C(30kDa-PEG)]]
